According to patent US20140219982A1, “EXOGENOUS OPIOID PEPTIDE-DEGRADING ENZYME” (priority 2011, published 2014):

Test system: gliadorphin (YPQPQPF: SEQ ID NO: 2)
Assay: Analysis of gliadorphin degradation product by LC-MS
Assay type: biochemical

B1: papain (protein, UniProt P00784 134-345, looked up)
Papain: IPEYVDWRQKGAVTPVKNQGSCGSCWAFSAVVTIEGIIKIRTGNLNEYSEQELLDCDRRSYGCNGGYPWSALQLVAQYGIHYRNTYPYEGVQRYCRSREKGPYAAKTDGVRQVQPYNEGALLYSIANQPVSVVLEAAGKDFQLYRGGIFVGPCGNKVDHAVAAVGYGPNYILIKNSWGTGWGENGYIRIKRGTGNSYGVCGLYTSSFYPVKN
notes: protease, commercial (Asahi Food & Healthcare Co., Ltd.)
For B1, the “detection of undegraded 7-mer of gliadorphin” value (LC-MS of degradation product) was “undegraded 7-mer was detected” and the “direct degradability for exomorphine peptide” value (papain alone, as shown in the examples) was “did not exhibit direct degradability”.
